Patent publication US10005846 (LIFEARC, dated 2018)

T1: rat TG2 (rat, UniProt Q9WVJ6 1-686, limits assumed)
T1 sequence: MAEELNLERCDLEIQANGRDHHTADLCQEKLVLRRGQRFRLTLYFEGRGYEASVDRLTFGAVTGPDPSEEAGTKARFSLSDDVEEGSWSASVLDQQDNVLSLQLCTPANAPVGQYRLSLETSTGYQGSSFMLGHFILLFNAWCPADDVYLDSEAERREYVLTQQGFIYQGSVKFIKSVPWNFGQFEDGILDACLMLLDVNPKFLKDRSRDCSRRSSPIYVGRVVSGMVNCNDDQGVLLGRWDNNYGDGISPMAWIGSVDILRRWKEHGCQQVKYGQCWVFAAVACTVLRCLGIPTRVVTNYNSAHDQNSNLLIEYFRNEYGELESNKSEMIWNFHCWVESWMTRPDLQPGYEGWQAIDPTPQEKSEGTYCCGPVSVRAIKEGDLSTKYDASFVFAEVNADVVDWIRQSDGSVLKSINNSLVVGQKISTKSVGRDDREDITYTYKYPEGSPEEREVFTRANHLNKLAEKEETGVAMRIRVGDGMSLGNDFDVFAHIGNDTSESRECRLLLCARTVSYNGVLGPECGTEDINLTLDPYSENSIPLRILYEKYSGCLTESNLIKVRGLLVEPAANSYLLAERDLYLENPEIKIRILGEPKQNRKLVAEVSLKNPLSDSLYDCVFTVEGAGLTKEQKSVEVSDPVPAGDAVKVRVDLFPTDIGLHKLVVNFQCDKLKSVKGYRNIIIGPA

T2: TG3 (human, UniProt Q08188)
T2 construct: recombinant, Zedira; also called recombinant human TG3; Epidermal Transglutaminase
T2 sequence (enzyme, looked up): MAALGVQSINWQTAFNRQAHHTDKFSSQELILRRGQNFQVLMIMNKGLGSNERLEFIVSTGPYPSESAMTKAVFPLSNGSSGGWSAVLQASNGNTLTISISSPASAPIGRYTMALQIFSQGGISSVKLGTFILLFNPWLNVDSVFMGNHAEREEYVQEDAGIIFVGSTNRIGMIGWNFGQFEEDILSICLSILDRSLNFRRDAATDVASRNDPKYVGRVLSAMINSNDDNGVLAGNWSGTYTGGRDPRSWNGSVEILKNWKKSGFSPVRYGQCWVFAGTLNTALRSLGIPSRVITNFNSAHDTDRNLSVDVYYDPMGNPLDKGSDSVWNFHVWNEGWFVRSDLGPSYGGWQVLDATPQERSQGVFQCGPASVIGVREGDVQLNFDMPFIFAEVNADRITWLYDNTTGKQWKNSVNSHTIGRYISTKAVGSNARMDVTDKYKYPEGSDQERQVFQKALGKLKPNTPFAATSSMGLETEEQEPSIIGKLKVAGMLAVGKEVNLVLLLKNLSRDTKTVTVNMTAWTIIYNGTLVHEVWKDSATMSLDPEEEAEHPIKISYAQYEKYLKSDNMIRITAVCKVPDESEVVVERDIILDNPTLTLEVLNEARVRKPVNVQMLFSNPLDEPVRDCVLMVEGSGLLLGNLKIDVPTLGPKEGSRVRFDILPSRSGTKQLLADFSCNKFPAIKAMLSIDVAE

T3: TG13
T3 construct: also called Factor XIIIa
T3 chain: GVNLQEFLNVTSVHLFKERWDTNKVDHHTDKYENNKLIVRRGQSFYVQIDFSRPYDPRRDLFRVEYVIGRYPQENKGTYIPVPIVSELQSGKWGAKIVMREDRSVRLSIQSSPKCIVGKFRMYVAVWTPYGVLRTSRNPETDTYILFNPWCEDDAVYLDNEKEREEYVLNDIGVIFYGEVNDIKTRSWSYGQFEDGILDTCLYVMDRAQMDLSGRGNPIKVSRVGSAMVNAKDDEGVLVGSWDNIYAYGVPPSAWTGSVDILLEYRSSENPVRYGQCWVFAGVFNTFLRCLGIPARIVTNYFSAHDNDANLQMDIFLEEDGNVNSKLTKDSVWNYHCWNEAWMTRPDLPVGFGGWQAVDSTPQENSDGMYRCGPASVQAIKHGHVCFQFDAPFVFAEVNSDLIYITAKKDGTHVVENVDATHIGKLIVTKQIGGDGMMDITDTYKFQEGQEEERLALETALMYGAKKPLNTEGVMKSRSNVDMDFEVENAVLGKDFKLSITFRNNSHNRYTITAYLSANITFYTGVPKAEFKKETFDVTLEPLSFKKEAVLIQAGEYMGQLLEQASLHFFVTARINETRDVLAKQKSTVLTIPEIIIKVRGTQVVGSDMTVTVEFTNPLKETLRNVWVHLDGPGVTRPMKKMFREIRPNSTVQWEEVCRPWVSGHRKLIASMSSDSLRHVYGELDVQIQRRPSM

B1: DH2 murine monoclonal antibody (antibody, V domains shown)
VH: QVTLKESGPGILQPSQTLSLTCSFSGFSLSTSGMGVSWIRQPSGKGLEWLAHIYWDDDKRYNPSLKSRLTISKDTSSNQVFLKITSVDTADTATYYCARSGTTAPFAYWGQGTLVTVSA
VL: QIVLTQSPAIMSASPGEKVTMTCSASSSVSYMYWYQQKPGSSPRLLIYDTSNLASGVPVRFSGSGSGTSYSLTISRMEAEDAATFYCQQWSSSPLTFGAGTKLELK
notes: Mouse hybridoma IgG; heavy chain amplified with primer MHCG2B, kappa light chain; also called mDH001
B2: DC1 murine monoclonal antibody (antibody, V domains shown)
VH: EVQLVESGGGLVKPGGSLKLSCAASGFTLSTHAMSWVRQTPEKRLEWVATISSGGRSTYYPDSVKGRFTISRDNVKNTLYLQLSSLRSEDTAVYFCARLISTYWGQGTTLTVSS
VL: DITMTQSPSSIYASLGERVTITCKASQDINSYLTWFQQKPGKSPKILIYLVNRLVDGVPSRFSGSGSGQDYALTISSLEYEDMGIYYCLQYDDFPYTFGGGTKLEIK
notes: Mouse hybridoma IgG; heavy chain amplified with primer MHCG1, kappa light chain; also called mDC001

Tests used:
[1] = target: T1, rat TG2; test: cell-based or functional assay
[2] = target: T2, TG3; test: ELISA, purified IgG at 0.1 ug/ml, plates coated with 100 ng of each TG [panel B]
Method: (§1) Conditioned medium or purified IgG were tested for reactivity to transglutaminase family members. The ability of each to bind to each transglutaminase (TG1, TG2, TG3, TG5, TG7 and Factor XIIIa; all Zedira) was determined using a plate binding assay. Microtiter plates (Costar, Cambridge, UK) were coated with recombinant TG (Zedira, Darmstadt, Germany) in 50 μl of 0.1 M bicarbonate/carbonate buffer (pH 9.6) overnight at 4° C. Plates were blocked for 2 h at 37° C. with 200 μl PBS containing 3% w/v BSA. Plates were washed three times with PBS containing 0.05% Tween 20 (washing buffer) and 100 μl of diluted conditioned medium (dilution 1:5 to 1:20) or purified anti-TG2 catalytic core mAbs was added. Plates were incubated for a further 1 h at room temperature. The washing step was repeated and anti-mouse gamma chain-horseradish peroxidase (1:5000) in PBS containing 0.05% Tween 20 (v:v) and 1% BSA (w:v) (Sigma, Poole UK) was added for 1 h. […] The reaction was stopped by adding 25 μl of 0.1 M H_2SO_4 and the absorbance at 450 nm was determined.

[3] = target: T3, TG13; test: as above
Method: as §1

Binder | IC50, 3H-putrescine incorporation assay [1] | IC50 ratio, 3H-putrescine incorporation assay (DH2 on rat TG2 against AB-1 on human TG2) [1] | IC50 ratio, 3H-putrescine incorporation assay (rat TG2 against human TG2, same antibody) [1] | binding result [2] | binding result [3]
B1 | 0.000223 mg/ml of IgG (to inhibit 1 ng of TG2) | 38 fold less active than AB-1 against human TG2 | ~6 fold less active than against human TG2 | – | –
B2 | – | – | – | no binding (tested: 0.1 ug/ml) | no binding (tested: 0.1 ug/ml)
